Experimental data reported in CN114437205A.

Biological target: SARS S-his (SARS)

B1: 抗体CT150 (antibody, V domains shown)
VH: QEQLVESGGGVVQPGRSLRLSCAASGFTFSSYAMHWVRQAPGEGLEWVALISYDGDNKYYADSVKGRFTISRDNSKTTLFLQMNSLRAEDTAVYYCARDRGSYFYGVDVWGQGATVTVSS
VL: DIQLTQSPSFLSASVGDRVTITCRASQDINSYLAWYQQKPGKAPKLLIYAASTLQSGVPSRFSGSGSGTEFTLTISSLQPEDFATYYCQQLNSYPIFTFGPGTKVDIK
**Q.** B1 was tested. Which EC50 did it give?
**A.** The EC50 was 0.129 µg/mL.
